Assay results reported in US20090304754.

Experiments:
[1] = biological target: Flavobacterium meningosepticum prolyl endopeptidase, unmodified (UniProt P27028)
[2] = biological target: Flavobacterium meningosepticum prolyl endopeptidase conjugated with 20,000 Da PEG (UniProt P27028)
[3] = biological target: T1, 26mer peptide derived from gamma-gliadin
T1 chain: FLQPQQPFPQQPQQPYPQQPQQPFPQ

For chymotrypsin, the “kcat/KM of chymotrypsin-catalyzed proteolysis of FM PEP (loss of PEP activity, Michaelis-Menten fit)” value [1] was “The chymotrypsin proteolysis exhibited a kcat/KM of 5.0 for the unmodified PEP”.

With trypsin the “kcat/KM of trypsin-catalyzed proteolysis of FM PEP (loss of PEP activity, Michaelis-Menten fit)” value [2] was “a kcat/KM of 3.4 was obtained for the PEGylated PEP” and the “kcat/KM of trypsin-catalyzed proteolysis of FM PEP (loss of PEP activity, Michaelis-Menten fit)” value [1] was “a kcat/KM of 11.7 M^-1 sec-1 was obtained for unmodified PEP”.

B1: Flavobacterium meningosepticum prolyl endopeptidase, unmodified (protein)
chain: QNSNVLKYPETKKVSHTDTYFGTQVSDPYRWLEDDRAEDTKAWVQQEVKFTQDYLAQIPFRDQLKKQLMDIWNYEKISAPFKKGKYTYFSKNDGLQAQSVLYRKDAAGKTEVFLDPNKFSEKGTTSLASVSFNKKGTLVAYSISEGGSDWNKIIILDAETKKQLDETLLDVKFSGISWLGDEGFFYSSYDKPKEGSVLSGMTDKHKVYFHKLGTKQSQDELIIGGDKFPRRYIGAYVTDDQRYLVVSAANATNGNELYIKDLKNKTDFIPIITGFDSNVNVADTDGDTLYLFTDKDAPNKRLVKTTIQNPKAETWKDVIAETSEPLEINTGGGYFFATYMKDAIDQVKQYDKNGKLVRAIKLPGSGNASGFGGEKTEKDLYYSFTNYITPPTIFKYNVTTGNSEVYQKPKVKFNPENYVSEQVFYTSSDGTKIPMMISYKKGLKKDGKNPTILYSYGGFNISLQPAFSVVNAIWMENGGIYAVPNIRGGGEYGKKWHDAGTKMQKKNVFNDFIAAGEYLQKNGYTSKEYMALSGRSNGGLLVGATMTMRPDLAKVAFPGVGVLDMLRYNKFTAGAGWAYDYGTAEDSKEMFEYLKSYSPVHNVKAGTCYPSTMVITSDHDDRVVPAHSFKFGSELQAKQSCKNPILIRIETNAGHGAGRSTEQVVAENADLLSFALYEMGIKSLK
B1 was tested, and the “time course of cleavage of the 26mer peptide, HPLC” value [3] was “PEGylated enzymes are able to cleave longer substrates at rates comparable to unmodified enzyme”.

B2: Flavobacterium meningosepticum prolyl endopeptidase conjugated with 20,000 Da PEG (protein)
chain: QNSNVLKYPETKKVSHTDTYFGTQVSDPYRWLEDDRAEDTKAWVQQEVKFTQDYLAQIPFRDQLKKQLMDIWNYEKISAPFKKGKYTYFSKNDGLQAQSVLYRKDAAGKTEVFLDPNKFSEKGTTSLASVSFNKKGTLVAYSISEGGSDWNKIIILDAETKKQLDETLLDVKFSGISWLGDEGFFYSSYDKPKEGSVLSGMTDKHKVYFHKLGTKQSQDELIIGGDKFPRRYIGAYVTDDQRYLVVSAANATNGNELYIKDLKNKTDFIPIITGFDSNVNVADTDGDTLYLFTDKDAPNKRLVKTTIQNPKAETWKDVIAETSEPLEINTGGGYFFATYMKDAIDQVKQYDKNGKLVRAIKLPGSGNASGFGGEKTEKDLYYSFTNYITPPTIFKYNVTTGNSEVYQKPKVKFNPENYVSEQVFYTSSDGTKIPMMISYKKGLKKDGKNPTILYSYGGFNISLQPAFSVVNAIWMENGGIYAVPNIRGGGEYGKKWHDAGTKMQKKNVFNDFIAAGEYLQKNGYTSKEYMALSGRSNGGLLVGATMTMRPDLAKVAFPGVGVLDMLRYNKFTAGAGWAYDYGTAEDSKEMFEYLKSYSPVHNVKAGTCYPSTMVITSDHDDRVVPAHSFKFGSELQAKQSCKNPILIRIETNAGHGAGRSTEQVVAENADLLSFALYEMGIKSLK
In the case of B2, the “time course of cleavage of the 26mer peptide, HPLC (disappearance of the intact 26mer peak)” value [3] is reported as “both the 5 kDa and 20 kDa PEGylated FM PEPs were 8-12% faster in cleaving the peptide than the unmodified FM PEP”.

B3: Flavobacterium meningosepticum prolyl endopeptidase conjugated with 5000 Da PEG (protein)
chain: QNSNVLKYPETKKVSHTDTYFGTQVSDPYRWLEDDRAEDTKAWVQQEVKFTQDYLAQIPFRDQLKKQLMDIWNYEKISAPFKKGKYTYFSKNDGLQAQSVLYRKDAAGKTEVFLDPNKFSEKGTTSLASVSFNKKGTLVAYSISEGGSDWNKIIILDAETKKQLDETLLDVKFSGISWLGDEGFFYSSYDKPKEGSVLSGMTDKHKVYFHKLGTKQSQDELIIGGDKFPRRYIGAYVTDDQRYLVVSAANATNGNELYIKDLKNKTDFIPIITGFDSNVNVADTDGDTLYLFTDKDAPNKRLVKTTIQNPKAETWKDVIAETSEPLEINTGGGYFFATYMKDAIDQVKQYDKNGKLVRAIKLPGSGNASGFGGEKTEKDLYYSFTNYITPPTIFKYNVTTGNSEVYQKPKVKFNPENYVSEQVFYTSSDGTKIPMMISYKKGLKKDGKNPTILYSYGGFNISLQPAFSVVNAIWMENGGIYAVPNIRGGGEYGKKWHDAGTKMQKKNVFNDFIAAGEYLQKNGYTSKEYMALSGRSNGGLLVGATMTMRPDLAKVAFPGVGVLDMLRYNKFTAGAGWAYDYGTAEDSKEMFEYLKSYSPVHNVKAGTCYPSTMVITSDHDDRVVPAHSFKFGSELQAKQSCKNPILIRIETNAGHGAGRSTEQVVAENADLLSFALYEMGIKSLK
With B3 the “time course of cleavage of the 26mer peptide, HPLC (disappearance of the intact 26mer peak)” value [3] was “both the 5 kDa and 20 kDa PEGylated FM PEPs were 8-12% faster in cleaving the peptide than the unmodified FM PEP”.
